Experimental data published in paper PMC8247599.

Legend:
[1] = system: aTm1 252-334 (Drosophila melanogaster); assay: EMSA
[2] = target: aTm1^252–334 (Drosophila melanogaster); assay: ITC
[3] = target: GST-tagged Khc^848–941 (Drosophila) (UniProt P17210); assay: SPR
Chain of GST-tagged Khc^848–941 (Drosophila) (P17210 848-941): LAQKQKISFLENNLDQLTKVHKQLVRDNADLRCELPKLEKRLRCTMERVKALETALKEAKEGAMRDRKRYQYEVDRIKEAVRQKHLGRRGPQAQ

UUUUUUUUUUUUUUUUUUUUUUUUU [oligo-(U25) RNA]
Kd [1]: > 10 µM

aTm1^252–334 (domain or fragment)
Kd [2]: 10 µM
Kd [3]: 0.141 µM
